IntAct's records for PubMed 22632832

B1: Speckle-type POZ protein (Homo sapiens), O43791 (parent)
chain: MSRVPSPPPPAEMSSGPVAESWCYTQIKVVKFSYMWTINNFSFCREEMGEVIKSSTFSSGANDKLKWCLRVNPKGLDEESKDYLSLYLLLVSCPKSEVRAKFKFSILNAKGEETKAMESQRAYRFVQGKDWGFKKFIRRDFLLDEANGLLPDDKLTLFCEVSVVQDSVNISGQNTMNMVKVPECRLADELGGLWENSRFTDCCLCVAGQEFQAHKAILAARSPVFSAMFEHEMEESKKNRVEINDVEPEVFKEMMCFIYTGKAPNLDKMADDLLAAADKYALERLKVMCEDALCSNLSVENAAEILILADLHSADQLKTQAVDFINYHASDVLETSGWKSMVVSHPHLVAEAYRSLASAQCPFLGPPRKRLKQS

Variants of: B1
Details: with cul3_human CUL3, Q13618

Row | Variant | effect of a mutation on the interaction
1 | M233E | disrupting interaction strength
